# Source: the DeepSol protein solubility set
# Experiment: soluble on expression in E. coli; label from the status in PepcDB or PDB records
row,Sequence,soluble on expression in E. coli
1,MKFDKPAGENPIDQLKVVGRPHDRIDGPLKTTGTARYAYEWHEEAPNAAYGYIVGSAIAKGRLTALDTDAAQKAPGVLAVITASNAGALGKGDKNTARLLGGPTIEHYHQAIALVVAETFEQARAAASLVQAHYRRNKGAYSLADEKQAVNQPPEDTPDKNVGDFDGAFTSAAVKIDATYTTPDQSHMAMEPHASMAVWDGNKLTLWTSNQMIDWCRTDLAKTLKVPVENVRIISPYIGGGFGGKLFLRSDALLAALAARAVKRPVKVMLPRPSIPNNTTHRPATLQHLRIGADQSGKITAISHESWSGNLPGGTPETAVQQSELLYAGANRHTGLRLATLDLPEGNAMRAPGEAPGLMALEIAIDELAEKAGIDPVEFRILNDTQVDPADPTRCFSRRQLIECLRTGADKFGWKQRNATPGQVRDGEWLVGHGVAAGFRNNLLEKSGARVHLEQNGTVTVETDMTDIGTGSYTILAQTAAEMLGVPLEQVAVHLGDSSFPVSAGSGGQWGANTSTSGVYAACMKLREMIASAVGFDPEQSQFADGKITNGTRSATLHEATAGGRLTAEESIEFGTLSKEYQQSTFAGHFVEVGVHSATGEVRVRRMLAVCAAGRILNPKTARSQVIGAMTMGMGAALMEELAVDDRLGYFVNHDMAGYEVPVHADIPKQEVIFLDDTDPISSPMKAKGVGELGLCGVSAAIANAVYNATGIRVRDYPITLDKLLDKLPDVV,not soluble
2,GAHMADLSLEKAAEVSWEEEAEHSGASHNILVEVQDDGTMKIKDEERDDTLGGGGSGGGGSGVLWDTPSPGIYRILQRGLLGRSQVGVGVFQEGVFHTMWHVTRGAVLMYQGKRLEPSWASVKKDLISYGGGWRFQGSWNAGEEVQVIAVEPGKNPKNVQTAPGTFKTPEGEVGAIALDFKPGTAGSPIVNREGKIVGLYGNGVVTTSGTYVSAIAQAKASQEGPLPEIEDEVFRK,soluble
3,MSDRNCYKCQQPGHISRNCPNGESDGGRRGGGGGSTCYNCQETGHFSRDCPKGGSGGGQRGGGGGGGSCYNCGGRGHYSRDCPSARSEGGSGGYGGRGGEGRSFGGQKCYNCGRSGHISRECTESGSAEEKRCYQCQETGHISRDCPSQTN,soluble
4,MSLSNDGRRQIIESAGRSMAEGYAETLRAIDPTLAINLFSPADEADRLPAPLSSYDGVVVTGSSLHVYRTEPAVTRQIDFLREVFDAGVPVFGSCWGLQLGVVAAGGTVIPNPKRREVPFARSVTLTAAGKTHQMHQSRPAAFDALAIHLDVVSVLPPDSVVTAFNDMAAVQAVEFRSGRSLFWGVQYHPEFELPYMASILRRNASSLVAEAAFSSEGELVEMVDAMDSHGNDGDRVRHPSLLPDDVLDRHTRTIEIANWLKMLSSGEGHHHHHH,not soluble
5,MEDLEEDVRFIVDETLDFGGLSPSDSREEEDITVLVTPEKPLRRGLSHRSDPNAVAPAPQGVRLSLGPLSPEKLEEILDEANRLAAQLEQCALQDRESAGEGLGPRRVKPSPRRETFVLKDSPVRDLLPTVNSLTRSTPSPSSLTPRLRSNDRKGSVRALRATSGKRPSNMKRESPTCNLFPASKSPASSPLTRSTPPVRGRAGPSGRAAASPPTPIRSVLAPQPSTSNSQRLPRPQGAAAKSSSQLPIPSAIPRPASRMPLTSRSVPPGRGALPPDSLSTRKGLPRPSTAGHRVRESGHKVPVSQRLNLPVMGATRSNLQPPRKVAVPGPTR,soluble
6,GPGSMSRQQQAQELQKQWETDPRWKGIKRAFTAEDVVRLRGSIQQEHTLAKRGAEKLWTLINNEPFVNALGALTGNQAMQQVKAGLKAIYLSGWQVAGDANVAGEMYPDQSLYPANSVPLVVKRINNTLTRADQIQWSEGKNPGDEGYVDFFAPIVADAEAGFGGVLNAFELMKAMIEAGASGVHFEDQLASVKKCGHMGGKVLVPTREAVAKLTAARLAADVMGTPTVLVARTDAEAADLITSDIDDNDKPYLTGERTVEGFFRTKPGLEQAISRGLAYAPYADLIWCETGKPDLEYAKKFAEAIHKQFPGKLLSYNCSPSFNWKKNLDDATIAKFQKELGAMGYKFQFITLAGFHALNYSMFNLAHGYARTQMSAFVELQQAEFAAADKGFTAVKHQREVGTGYFDAVTQTVEREASTTALHGSTEDEQFFDGQKVA,soluble
7,SSSGYSSLEEDEDFFFTARTSFFRRAPPGKSRSGQPDVEKEKETHNYLSKEEIKEKVHKYNSAVTDKLKMTLNSNGIYTGFIKVQMELCKPAQPSPEPSSGGCMNTLHISSTNTVGEVIEALLRKFLVTESPTKFALYKRCHREDQVYACKLSDREHPLYLRLVAGPRTDTLSFVLREHEIGEWEAFSLPELQNFLRILDKEEDEQLQSLKRRYTAYRQKLEEALGEVWKPG,soluble
8,MGSDKIHHHHHHMRKMKNNDKSVITVDLNDPVKSLEYLEEAFQIGTFILKNSPVNFKRLAKVLSDLDTFYNLDFKTKIDISGQISGGGATRGYFPLGVESGLVDVFEKKESYSFGWPDNEIPDSDASNLSLVAPNIYPDHGYINPDDINGLIKDFANAAKKLSRLIEIILFNGKTVLPIDESSDFQSLLRSFRYYKKTEFDPPNTGANSLHTDWNLITLVYADADGYQYRDNEGNFQNIIPEMEDCLIVNFGDFLSAWTGGKIVSPWHQVVEAKKKDVRNSLVFFYYPAASSSAVKNPIYNQGEPLSLFVDQSDPLNRLWDFSKIETMNEMYAGKWKQVSRK,not soluble
9,TEVELAYLVSESQLIGITGSNGKTTTTTMIAEVLNAGGQRGLLAGNIGFPASEVVQAANDKDTLVMELSSFQLMGVKEFRPHIAVITNLMPTHLDYHGSFEDYVAAKWNIQNQMSSSDFLVLNFNQGISKELAKTTKATIVPFSTTEKVDGAYVQDKQLFYKGENIMSVDDIGVPGSHNVENALATIAVAKLAGISNQVIRETLSNFGG,not soluble
10,MGSDKIHHHHHHMNKLEIENLSKIYGKKVANDKITVTLENGVYGLLGPNGAGKSTLMKQITTLIKPDEGQILYNGEDIFKMDADYRNILGYLPQEFGVYKNFTAKEFLQYIGALKGLRGKYLNSKIGELLDLVGLYDVRNKSIGKFSGGMKRRVGIAQVLLNDPKIIVLDEPTAGLDPQERARFRNLIAKMSRDKIIILSTHIISDIESVAKETIMIKDGKLLMKGTHKDILSHMENKVYNVQVKNECEVDDIQSKYKVVSIQSDINSIVLRIVSEDIPSEDNIQPVQAKFEDVYMFYFDLEDAREV,not soluble
11,MGNTMCPKMESAFSLLGKRWNGLIIHVLMDGPKRFKEITETIPMISQKMLAERLKELEQNEIVERQVLPETPVKVIYTLTEKGTALQAVFQEMQAWADQFCEPGDTVCEEEKLEHHHHHH,soluble
12,MGSDKIHHHHHHMTDKGKNDLTSKAKDKARGNPEKPPYWFEIIVSDPQKRTGDPGSSSGYVSYQISTKTNNTSFYDNRGDPESIIVVHRRYSDLLLLHDILLNRFPTCIIPPLPDKKVFQYIAGDRFSQRFTQKRCHSLQNFLRRVSLHPDLSQSKVFKTFLVSKDWESHRKVLQDSLQPNKDEVTDAFMNAFKTVHKQNEEFTEIREKSDKLDRTVTKIDKLFHKVVKKNDSMSEDYTKLGSNLQELQELVTGENEELAAKLKIFNEGVTQLSYGLQDLTKYLDYEYIVDLKDLEHYIDSMRQLIKLKDQKQIDYEELSDYLTRSIKEKNNLISGYGGSNFFANKLEELAGINQEASRREKINKLEGKITSLTGELENAKKVADGFEQECLKEIDHFESVKTAEIKKSLGSLADHHIEFYERILEAWEKVDDSL,not soluble
13,MAHHHHHHMAEIHQDKTESAVSSSGILKNVVRHSPKVSSKEIEDSEIRIVKMAHEEENRKLQKMGKCAKDYTLPCPKFWKKKIMNKSENICIASSSYNGFCTPRQSFDNFTKSEKMKFETSCNVEWGCRNVVADACESGKRNYNEPCPEGFISQNDNTCMADLTVYDGLCNGQKIDFTHLTNDEKQNWSVACEAYWPCYIDCSLNNKALSTCPSNWKEINSYECIPPYSYNGPCKDTKNFKFFNELMKKKFEEKCKVTFVCTDLCEKNYRQECPLHWMKEGGYCLAPPSFNLCDRKKYLYSNLTQEEEKKKFEQECSVQWPCQKTSFCDMDWTAECPLNWVKEVPRQGRDQEGGDKYICTADSSLYRGRCAFISLPNGADEETKRELASTCDTPWPCSATGATAGAPEEGGPVPRSDSKIVERRNSAFTNGPVTFQGDVRTNGGPTYRVVDSQGDVSLADIMR,not soluble
